One test has as its target T1, human ICOS (human, UniProt Q9Y6W8 21-140, limits assumed).
T1 construct: Bought
T1 sequence (looked up): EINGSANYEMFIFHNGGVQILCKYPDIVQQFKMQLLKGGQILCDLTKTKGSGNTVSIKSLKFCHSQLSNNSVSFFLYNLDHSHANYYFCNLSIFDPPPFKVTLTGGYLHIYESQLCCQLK
The test is described as follows: ELISA, coated antigen 1 µg/mL. Here is the method:
(§1) After washing, a goat anti-human IgG secondary antibody labeled with horseradish peroxidase diluted in phosphate buffer (PBS) containing 2% BSA in a ratio of 1:15000 was added, followed by incubating at 37° C. for 1 hour. After washing, the TMB chromogen solution was used for developing, and the absorbance value was read using a microplate reader at 450 nm. The data were imported into Graphprism to calculate EC₅₀ values.
Background: ELISA stands for enzyme-linked immunosorbent assay.

The target in test [1] is T2, full-length human PD-1 on CHO-hPD-1 cells (human, UniProt Q15116 25-288).
T2 construct: whole, on cells; also called PD-1 on the cell membrane surface of CHO-hPD-1
The experiment in a line: flow cytometry, FITC-labelled antibody on CHO-hPD-1 cells. In general terms: A flow cytometer gives signals particle by particle.

Test [2] deals with T2, full-length human PD-1 on CHO-hPD-1 …. The test is described as follows: flow cytometry on CHO-hPD-1 cells with FITC-labeled antibody.
Test [3] deals with T3, CD64 protein (UniProt P12314 16-288, limits assumed).
T3 construct: also called FcγRI
The experiment in a line: BLI (Octet ForteBio), CD64 immobilised on an SA biosensor, antibody in solution. On the technique in general: In BLI a coated tip is dipped into the sample, and binding shifts an interference pattern.

In the next test the target is T4, FcRn protein (UniProt P55899 24-297; P61769 21-119).
T4 construct: Immobilised on an SA biosensor
The test is described as follows: BLI (Octet ForteBio), FcRn on SA biosensor, antibody in PBST pH6.0. From the text: The antibody Fc can bind to FcRn so that it cannot be easily cleared in vivo, thus prolonging the half-life in vivo.

In test [4] the target is T2, full-length human PD-1 on CHO-hPD-1 …. The experiment in a line: competitive FACS on CHO-hPD-1 cells, competitor PD-L1-mFc-Bio. An excerpt: (§2) The data were imported into Graphprism to calculate IC₅₀ values.
Test [5] has the same target. The experiment in a line: competitive flow cytometry on CHO-hPD-1 cells; blocked ligand PD-L1 (PD-L1-mFc-Bio).
Source text: as §2

The target in test [6] is PD-1 on Jurkat-PD-1-NFAT cells (UniProt Q15116 25-288, limits assumed). The test is described as follows: cell-based or functional assay.
In the next test the target is T5, human PD-1-His (human, UniProt Q15116 25-170).
T5 construct: extracellular domain; not shown: His tag
The test is described as follows: BLI (Octet ForteBio), antibody on ProA biosensor, PD-1-His in solution.

The next test concerns the target T6, human PD-L1-his (human, UniProt Q9NZQ7 19-239, limits assumed).
T6 construct: Bought; not shown: His tag
The experiment in a line: ELISA on coated human PD-L1-his, HRP goat anti-human IgG detection. Here is the method: as §1

A further test concerns the target T7, human PD-1-ECD-mFc (human; mouse, UniProt Q15116 25-170).
T7 construct: extracellular domain; Made in HEK293F cells; also called human PD-1-mFc; PD-1-mFc; not shown: mouse Fc (mFc) amino acids, AB097847.1
The experiment in a line: ELISA, coated human PD-1-mFc.

Another test addresses T8, human BTLA-his (human, UniProt Q7Z6A9 31-157, limits assumed).
T8 construct: Bought; not shown: His tag
The experiment in a line: ELISA on coated human BTLA-his, HRP goat anti-human IgG detection. Here is the method: as §1

The next test concerns the target T9, monkey PD-1-hFc (monkey).
T9 construct: Extracellular domain of monkey PD-1 fused to an hFc tag, made in house; not shown: The hFc tag and any linker
T9 chain: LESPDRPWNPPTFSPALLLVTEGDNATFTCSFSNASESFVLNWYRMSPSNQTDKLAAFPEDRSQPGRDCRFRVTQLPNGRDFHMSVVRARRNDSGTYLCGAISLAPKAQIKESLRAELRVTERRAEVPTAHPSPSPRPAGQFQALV
The experiment in a line: ELISA, coated monkey PD-1-hFc. Here is the method: The specific experimental steps were as follows: human PD-1-hFc and monkey PD-1-hFc antigens were diluted to 1 μg/mL with CBS solution, then coated on a 96-well ELISA plate (purchased from Guangzhou Jiete Bio) at 4° C. overnight. […] After washing, a goat anti-human secondary antibody (FC) labeled with horseradish peroxidase diluted in phosphate buffer (PBS) containing 2% BSA in a ratio of 1:15000 was added, followed by incubating at 37° C. for 1 hour. After washing, the TMB chromogen solution was used for developing, and the absorbance value was read using a microplate reader at 450 nm, and the data were imported into Graphprism to calculate EC₅₀ values.

Test [7] has as its target T3, CD64 protein. The experiment in a line: BLI (Octet ForteBio), CD64 immobilised on an SA biosensor, antibody in solution. The source holds these as a separate data set.

Read-outs that look alike come from different tables or passages of the source.

B1: 35E6-HZ1-IgG1-1D (antibody)
heavy: QVQLQESGPGLVKPSETLSLTCTVSGYSITSDYWSWIRQPPGKGLEWIGYINYDGDNNYNPSLKSRVTISRDTSKNQFSLKLSSVTAADTAVYYCARGGFDYWGQGTLVTVSSASTKGPSVFPLAPSSKSTSGGTAALGCLVKDYFPEPVTVSWNSGALTSGVHTFPAVLQSSGLYSLSSVVTVPSSSLGTQTYICNVNHKPSNTKVDKRVEPKSCDKTHTCPPCPAPEAAGGPSVFLFPPKPKDTLMISRTPEVTCVVVAVSHEDPEVKFNWYVDGVEVHNAKTKPREEQYNSTYRVVSVLTVLHQDWLNGKEYKCKVSNKALPAPIEKTISKAKGQPREPQVYTLPPSREEMTKNQVSLTCLVKGFYPSDIAVEWESNGQPENNYKTTPPVLDSDGSFFLYSKLTVDKSRWQQGNVFSCSVMHEALHAHYTQKSLSLSPGK
light: EIVLTQSPATLSLSPGERATLSCRASESVEYYGTNLMQWYQQKPGQPPRLLIYFASNVASGIPARFSGSGSGTDFTLTISSLEPEDFAVYFCQQSKKVPSTFGQGTKVEIKRTVAAPSVFIFPPSDEQLKSGTASVVCLLNNFYPREAKVQWKVDNALQSGNSQESVTEQDSKDSTYSLSSTLTLSKADYEKHKVYACEVTHQGLSSPVTKSFNRGEC
notes: also called IgG1-1D mutant anti-PD-1 humanized antibody
The EC50 is the concentration that produces a half-maximal response. In general, EC50 (read off the curve) refers to the concentration needed to bring the measured effect to its halfway point. As a reminder, the Kd is the concentration at which binding is half-saturated. The term koff denotes the rate constant with which the complex falls apart. One may read the kon as a measure of how fast the partners come together. As usually defined, the IC50 is the midpoint of a concentration-inhibition curve. Turning to B1, the binding result with human ICOS is “no binding (tested: 10 µg/mL and 1 µg/mL)”; with CD64 protein [3] it was “no binding”; with human PD-L1-his, “no binding (tested: 10 ug/mL)”; with human BTLA-his it was “no binding (tested: 10 ug/mL)”. Moreover, the EC50 came to 0.078 nM in test [1], 0.121 nM with human PD-1-ECD-mFc and 0.309 nM with monkey PD-1-hFc. Besides, the “EC50 (read off the curve)” value in test [2] is ~10 ng/mL. The results for the Kd in the test with FcRn protein and with human PD-1-His were 7.89 nM and 1.32 nM, respectively. Also, the koff is 0.00746 s⁻¹ in the test with FcRn protein and 0.000306 s⁻¹ with human PD-1-His. For the same molecule, the kon with FcRn protein came to 946000 M⁻¹ s⁻¹; with human PD-1-His, 333000 M⁻¹ s⁻¹. The molecule also registered an IC50 in test [4] of 0.818 ng/mL. Moreover, the “IC50 (read off the curve)” value in test [5] was ~100 ng/mL. The “EC50 by the PD-1/PD-L1 luciferase reporter system” value in test [6] came out at 2.81 nM.

B2: 91D5-HZ2-IgG1-1D (antibody)
heavy: EVQLVQSGAEVKKPGASVKVSCKASGYTFTDYYMNWVREAPGQGLEWMGEINPKYGDTTYNQKFKDRATLTVDKSTSTAYMELSSLRSDDTAVYYCAKGIRLFDSWGQGTLVTVSSASTKGPSVFPLAPSSKSTSGGTAALGCLVKDYFPEPVTVSWNSGALTSGVHTFPAVLQSSGLYSLSSVVTVPSSSLGTQTYICNVNHKPSNTKVDKRVEPKSCDKTHTCPPCPAPEAAGGPSVFLFPPKPKDTLMISRTPEVTCVVVAVSHEDPEVKFNWYVDGVEVHNAKTKPREEQYNSTYRVVSVLTVLHQDWLNGKEYKCKVSNKALPAPIEKTISKAKGQPREPQVYTLPPSREEMTKNQVSLTCLVKGFYPSDIAVEWESNGQPENNYKTTPPVLDSDGSFFLYSKLTVDKSRWQQGNVFSCSVMHEALHAHYTQKSLSLSPGK
light: DIQLTQSPSSLSASVGDRVTITCRPSGNVHNYFAWYQQKPGKSPKLLVYNAKTLAEGVPSRFSGSGSGTDYTLTISSLQPEDFATYYCHHYYTAPFTFGGGTKVEIKRTVAAPSVFIFPPSDEQLKSGTASVVCLLNNFYPREAKVQWKVDNALQSGNSQESVTEQDSKDSTYSLSSTLTLSKADYEKHKVYACEVTHQGLSSPVTKSFNRGEC
notes: as for B1
With B2, the binding result is “no binding (tested: 10 µg/mL and 1 µg/mL)” with human ICOS; “no binding (tested: 10 ug/mL)” in the test with human PD-L1-his; “no binding (tested: 10 ug/mL)” in the test with human BTLA-his; “no binding” in the test with CD64 protein [7]. Further, the EC50 in [1] was determined as 0.093 nM; in the test with human PD-1-ECD-mFc, 0.104 nM; in the test with monkey PD-1-hFc, 0.25 nM. For the same molecule, the half-maximal effective concentration (EC50 (read off the curve)) in [2] was ~10 ng/mL. Also, the results for the Kd in the test with FcRn protein and in the test with human PD-1-His were 5.33 nM and 1.17 nM, respectively. For the same molecule, the koff with FcRn protein was 0.00725 s⁻¹; with human PD-1-His, 0.00023 s⁻¹. The kon came out at 1.36e+06 M⁻¹ s⁻¹ with FcRn protein and 384000 M⁻¹ s⁻¹ with human PD-1-His. Also, the IC50 in [4] turned out to be 1.32 ng/mL. Moreover, the “IC50 (read off the curve)” value in test [5] is ~200 ng/mL. Moreover, in [6], the “EC50 by the PD-1/PD-L1 luciferase reporter system” value turned out to be 3.48 nM.

Source of the values: patent US20240425593A1 (SICHUAN KELUN BIOTECH BIOPHARMACEUTICAL, published 2024).
